T1: human beta-DG extracellular domain (human, UniProt Q14118 654-749, biotinylated in the Example 6 ELISA)
T1 construct: extracellular domain; Expression of the soluble human protein is not described; also called hBeta-DG; hbeta-DG
T1 sequence (looked up): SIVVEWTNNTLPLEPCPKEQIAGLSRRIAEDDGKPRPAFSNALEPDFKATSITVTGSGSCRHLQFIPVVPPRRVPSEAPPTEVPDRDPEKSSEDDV


Molecular target: T1, human beta-DG extracellular domain
Assay: SPR (Biacore T100), antibody captured on Protein G chip, BDG in flow, 1:1 model

Kd [nM] | koff [s⁻¹] | kon [M⁻¹ s⁻¹] | Binder
2.08 | 0.00326 | 1.57e+06 | triAb 3407 (bispecific antibody, human IgG1, kappa, Constant regions with knob-in-hole, NNAS, YTE and RF variants) light 1: EIVLTQSPDFLSVTPKEKVTLTCRASQSISNNLHWYQQKSDQSPKLLIKYASQSISGIPSRFSGSGSGTDFTLTINSVEAEDAATYFCQQSKSWPRTFGGGTKLEIKDKTHTEIVLTQSPDFLSVTPKEKVTLTCRASQSISNNLHWYQQKSDQSPKLLIKYASQSISGIPSRFSGSGSGTDFTLTINSVEAEDAATYFCQQSKSWPRTFGGGTKLEIKDKTHTRTVAAPSVFIFPPSDEQLKSGTASVVCLLNNFYPREAKVQWKVDNALQSGNSQESVTEQDSKDSTYSLSSTLTLSKADYEKHKVYACEVTHQGLSSPVTKSFNRGEC heavy 1: EVQLVESGGGLVKPGGSLRLSCAASGFTFSSYTMSWVRQAPGKGLEWVASISSSGSNTYYPDSVKGRFTISRDNAKNNLYLQMNSLRAEDTALYYCARFDYGSSLDSWGQGTLLTVSSDKTHTEVQLVESGGGLVKPGGSLRLSCAASGFTFSSYTMSWVRQAPGKGLEWVASISSSGSNTYYPDSVKGRFTISRDNAKNNLYLQMNSLRAEDTALYYCARFDYGSSLDSWGQGTLLTVSSDKTHTASTKGPSVFPLAPSSKSTSGGTAALGCLVKDYFPEPVTVSWNSGALTSGVHTFPAVLQSSGSLSSVVTVPSSSLGTQTYICNVNHKPSNTKVDKKVEPKSCDKTHTCPPCPAPELLGGPSVFLFPPKPKDTLYITREPEVTCVVVDVSHEDPEVKFNWYVDGVEVHNAKTKPREEQYNNASRVVSVLTVLHQDWLNGKEYKCKVSNKALPAPIEKTISKAKGQPREPQVYTLPPCRDELTKNQVSLWCLVKGFYPSDIAVEWESNGQPENNYKTTPPVLDSDGSFFKKLTVDKSRWQQGNVFSCSVMHEALHNHYTQKSLSLSPG heavy 2: QVQLVQSGAEVVKPGSSVKVSCEASGFTFTDSVITWVRQRPGQGLEWIGEIYPGSGNFYYNEKFQGRVTITADKSTSTAYMELSSLRSEDTAVYFCAMRRSSWGQGTLVTVSSASTKGPSVFPLAPSSKSTSGGTAALGCLVKDYFPEPVTVSWNSGALTSGVHTFPAVLQSSGSLSSVVTVPSSSLGTQTYICNVNHKPSNTKVDKKVEPKSCDKTHTCPPCPAPELLGGPSVFLFPPKPKDTLYITREPEVTCVVVDVSHEDPEVKFNWYVDGVEVHNAKTKPREEQYNNASRVVSVLTVLHQDWLNGKEYKCKVSNKALPAPIEKTISKAKGQPREPQVCTLPPSRDELTKNQVSLSCAVKGFYPSDIAVEWESNGQPENNYKTTPPVLDSDGSFFLVSKLTVDKSRWQQGNVFSCSVMHEALHNRFTQKSLSLSPG light 2: DVVMTQTPLSLSVTPGQPASISCKSSQTIVHSNSKTYLEWYLQKPGQSPQLLIYKVSSRFSGVPDRFSGSGSGTDFTLKISRVEAEDVGVYYCFQGSHVPLTFGQGTKLEIKRTVAAPSVFIFPPSDEQLKSGTASVVCLLNNFYPREAKVQWKVDNALQSGNSQESVTEQDSKDSTYSLSSTLTLSKADYEKHKVYACEVTHQGLSSPVTKSFNRGEC
1.87 | 0.0045 | 2.41e+06 | triAb 3437 (bispecific antibody, human IgG1, kappa) light 1: EIVLTQSPDFLSVTPKEKVTLTCRASQSIGNNLHWYQQKSDQSPKLLIKYASQSISGIPSRFSGSGSGTDFTLTINSVEAEDAATYFCQQSKSWPRTFGGGTKLEIKDKTHTEIVLTQSPDFLSVTPKEKVTLSCRASQSISNYLHWYQQKSDQSPKLLIKYASQSISGIPSRFSGSGSGTDFTLSINSVEAEDAATYFCQQSKSWPRTFGGGTKLEIKDKTHTRTVAAPSVFIFPPSDEQLKSGTASVVCLLNNFYPREAKVQWKVDNALQSGNSQESVTEQDSKDSTYSLSSTLTLSKADYEKHKVYACEVTHQGLSSPVTKSFNRGEC heavy 1: EVQLVESGGGLVKPGGSLRLSCAASGFTFSSYTMSWVRQAPGKGLEWVASISSSGSNTYYPDSVKGRFTISRDNAKNNLYLQMNSLRAEDTALYYCARFDYGSSLDSWGQGTLLTVSSDKTHTEVQLVESGGGLVKPGGSLRLSCAASGFTFSSYTMSWVRQAPGKGLEWVASISSSGSNTYYPDSVKGRFTISRDNAKNNLYLQMNSLRAEDTALYYCARFDYGSSLDSWGQGTLLTVSSDKTHTASTKGPSVFPLAPSSKSTSGGTAALGCLVKDYFPEPVTVSWNSGALTSGVHTFPAVLQSSGSLSSVVTVPSSSLGTQTYICNVNHKPSNTKVDKKVEPKSCDKTHTCPPCPAPELLGGPSVFLFPPKPKDTLYITREPEVTCVVVDVSHEDPEVKFNWYVDGVEVHNAKTKPREEQYNNASRVVSVLTVLHQDWLNGKEYKCKVSNKALPAPIEKTISKAKGQPREPQVYTLPPCRDELTKNQVSLWCLVKGFYPSDIAVEWESNGQPENNYKTTPPVLDSDGSFFKKLTVDKSRWQQGNVFSCSVMHEALHNHYTQKSLSLSPG heavy 2: QVQLVQSGAEVVKPGSSVKVSCEASGFTFTDSVITWVRQRPGQGLEWIGEIYPGSGNFYYNEKFQGRVTITADKSTSTAYMELSSLRSEDTAVYFCAMRRSSWGQGTLVTVSSASTKGPSVFPLAPSSKSTSGGTAALGCLVKDYFPEPVTVSWNSGALTSGVHTFPAVLQSSGSLSSVVTVPSSSLGTQTYICNVNHKPSNTKVDKKVEPKSCDKTHTCPPCPAPELLGGPSVFLFPPKPKDTLYITREPEVTCVVVDVSHEDPEVKFNWYVDGVEVHNAKTKPREEQYNNASRVVSVLTVLHQDWLNGKEYKCKVSNKALPAPIEKTISKAKGQPREPQVCTLPPSRDELTKNQVSLSCAVKGFYPSDIAVEWESNGQPENNYKTTPPVLDSDGSFFLVSKLTVDKSRWQQGNVFSCSVMHEALHNRFTQKSLSLSPG light 2: DVVMTQTPLSLSVTPGQPASISCKSSQTIVHSNSKTYLEWYLQKPGQSPQLLIYKVSSRFSGVPDRFSGSGSGTDFTLKISRVEAEDVGVYYCFQGSHVPLTFGQGTKLEIKRTVAAPSVFIFPPSDEQLKSGTASVVCLLNNFYPREAKVQWKVDNALQSGNSQESVTEQDSKDSTYSLSSTLTLSKADYEKHKVYACEVTHQGLSSPVTKSFNRGEC
1.6 | 0.00433 | 2.7e+06 | triAb 3423 (bispecific antibody, human IgG1, kappa) light 1: EIVLTQSPDFLSVTPKEKVTLSCRASQSISNYLHWYQQKSDQSPKLLIKYASQSISGIPSRFSGSGSGTDFTLSINSVEAEDAATYFCQQSKSWPRTFGGGTKLEIKDKTHTEIVLTQSPDFLSVTPKEKVTLTCRASQSISNNLHWYQQKSDQSPKLLIKYASQSISGIPSRFSGSGSGTDFTLTINSVEAEDAATYFCQQSKSWPRTFGGGTKLEIKDKTHTRTVAAPSVFIFPPSDEQLKSGTASVVCLLNNFYPREAKVQWKVDNALQSGNSQESVTEQDSKDSTYSLSSTLTLSKADYEKHKVYACEVTHQGLSSPVTKSFNRGEC heavy 1: EVQLVESGGGLVKPGGSLRLSCAASGFTFSSYTMSWVRQAPGKGLEWVASISSSGSNTYYPDSVKGRFTISRDNAKNNLYLQMNSLRAEDTALYYCARFDYGSSLDSWGQGTLLTVSSDKTHTEVQLVESGGGLVKPGGSLRLSCAASGFTFSSYTMSWVRQAPGKGLEWVASISSSGSNTYYPDSVKGRFTISRDNAKNNLYLQMNSLRAEDTALYYCARFDYGSSLDSWGQGTLLTVSSDKTHTASTKGPSVFPLAPSSKSTSGGTAALGCLVKDYFPEPVTVSWNSGALTSGVHTFPAVLQSSGSLSSVVTVPSSSLGTQTYICNVNHKPSNTKVDKKVEPKSCDKTHTCPPCPAPELLGGPSVFLFPPKPKDTLYITREPEVTCVVVDVSHEDPEVKFNWYVDGVEVHNAKTKPREEQYNNASRVVSVLTVLHQDWLNGKEYKCKVSNKALPAPIEKTISKAKGQPREPQVYTLPPCRDELTKNQVSLWCLVKGFYPSDIAVEWESNGQPENNYKTTPPVLDSDGSFFKKLTVDKSRWQQGNVFSCSVMHEALHNHYTQKSLSLSPG heavy 2: QVQLVQSGAEVVKPGSSVKVSCEASGFTFTDSVITWVRQRPGQGLEWIGEIYPGSGNFYYNEKFQGRVTITADKSTSTAYMELSSLRSEDTAVYFCAMRRSSWGQGTLVTVSSASTKGPSVFPLAPSSKSTSGGTAALGCLVKDYFPEPVTVSWNSGALTSGVHTFPAVLQSSGSLSSVVTVPSSSLGTQTYICNVNHKPSNTKVDKKVEPKSCDKTHTCPPCPAPELLGGPSVFLFPPKPKDTLYITREPEVTCVVVDVSHEDPEVKFNWYVDGVEVHNAKTKPREEQYNNASRVVSVLTVLHQDWLNGKEYKCKVSNKALPAPIEKTISKAKGQPREPQVCTLPPSRDELTKNQVSLSCAVKGFYPSDIAVEWESNGQPENNYKTTPPVLDSDGSFFLVSKLTVDKSRWQQGNVFSCSVMHEALHNRFTQKSLSLSPG light 2: DVVMTQTPLSLSVTPGQPASISCKSSQTIVHSNSKTYLEWYLQKPGQSPQLLIYKVSSRFSGVPDRFSGSGSGTDFTLKISRVEAEDVGVYYCFQGSHVPLTFGQGTKLEIKRTVAAPSVFIFPPSDEQLKSGTASVVCLLNNFYPREAKVQWKVDNALQSGNSQESVTEQDSKDSTYSLSSTLTLSKADYEKHKVYACEVTHQGLSSPVTKSFNRGEC
